The source of these data is publication PMC12462935, “TRIM21‐Mediated K11‐Linked Ubiquitination of ID1 Suppresses Tumorigenesis and Promotes Cuproptosis in Esophageal Squamous Cell Carcinoma” (Advanced Science, 2025).

The target of the assay is T1, TRIM21-His protein (UniProt P19474 1-475).
T1 construct: TRIM21-His protein, Sino Biological 18010-H07B; also called recombinant TRIM21; source: bought: Sino Biological (18010-H07B)
Description: pull-down; TRIM21-His incubated with GST-ID1 or GST at a 3:1 molar ratio in lysis buffer; captured with anti-GST antibody at 4 °C overnight, then Protein A/G beads 4 h; immunoblot. As to conditions: both partners purified.

B1: GST-ID1 (natural protein, UniProt P41134 1-155, looked up)
chain: MKVASGSTATAAAGPSCALKAGKTASGAGEVVRCLSEQSVAISRCAGGAGARLPALLDEQQVNVLLYDMNGCYSRLKELVPTLPQNRKVSKVEILQHVIDYIRDLQLELNSESEVGTPGGRGLPVRAPLSTLNGEISALTAEAACVPADDRILCR
notes: also called recombinant ID1; source: cloned into pGEX-6p-2 with a GST tag and purified
As to B1, the binding result was “binds”.
